{"source": "patent US12441811B2", "about": "“Compositions and methods for treating serpin B13 disorders” (REGENTS OF THE UNIVERSITY OF MINNESOTA, priority 2019, dated 2025)", "molecules": {"B1": {"name": "B29: mouse monoclonal antibody to serpin B13, clone B29; heavy chain SEQ ID NO:14, kappa light chain SEQ ID NO:16 (antibody, V domains shown)", "VH": "QIQLVQSGPELKKPGETVKISCKASGYTFTTYGMSWVKQAPGKGLKWMGWINTYSGMPTYADDFKGRFAFSLETSATTAYLQINNLKNEDTATYFCARPLLGLDYWGQGTTLTVSS", "VL": "DIVMTQTPLSLSVTIGQPASISCKSSQSLLHSDGKTFLNWFLQRPGQSPKLLIYLVSKLESGIPDRFSGSGSGTDFTLKISRVEVEDLGVYYCLQHTHFPLTFGAGTKLEIK"}}, "key": {"[1]": {"test_system": "streptozotocin-induced diabetes", "test": "STZ-induced diabetes in adult offspring with gestational exposure to anti-serpinB13 mAb", "format": "in vivo, mouse", "details": "for preserved residual β-cell mass: 4 weeks after STZ 150 mg/kg in adulthood; for preserved residual β-cell mass / diabetes / severity of the disease: prenatal exposure; for diabetes / severity of the disease: STZ injected in adulthood, vs control antibody", "excerpt": "Calculation of the islet mass. In embryos, the β-cell mass was expressed as the percentage of the area of all pancreatic sections combined, that positively stained with anti-insulin antibody. To calculate β-cell mass in adult mice, the percentage insulin-positive area was multiplied by the pancreas weight expressed in milligrams.\nDiabetes induction and monitoring. C57BL/6 male mice, which are susceptible to STZ-induced diabetes, were subjected to a 6-hour period of bedding removal and fasting with unlimited access to drinking water. At the end of fasting, STZ was dissolved in a freshly prepared buffer (50 mM Sodium Citrate, pH 4.5) and immediately injected i.p. at 150 mg/kg. The glucose levels in tail blood were measured at random every 7 days for 4 weeks. Alternatively, to perform the glucose tolerance test, STZ-treated C57BL/6J male mice were first fasted for 6 hours with unlimited access to drinking water, and then injected i.p. with a 10% D-(+)-glucose solution (10 μL/g body weight). A glucometer (One-Touch Ultra) was used to monitor glucose levels using tail blood collected before glucose injection, and after injection at 30-min intervals for 2 hours. For glucometer glucose readings “above 600 mg/dL”, the data were extrapolated to the value of 700 mg/dL for algebraic statistical purposes only."}, "pancreatic islets": {"test_system": "pancreatic islets", "details": "cited from earlier work"}, "Notch1 receptor": {"test_system": "Notch1 receptor", "test": "Examination of Notch1 receptor in embryonic pancreas (Western blot, flow cytometry, qPCR)", "format": "cell-based, mouse", "details": "for levels of active Notch intracellular domain (aNICD): embryonic pancreas, antibody vs control Ab", "experimental": "Staining for flow cytometry. BD LSRFortessa X-20, LSR-II and FACSCanto-II were used for FACS analysis. Positive populations of cells were gated and counted using FlowJo ver.10 software. For the islet cells isolated from adult mice, intracellular staining to detect glucagon and insulin was used to count single-positive as well as double-negative cells. In the cells isolated from embryonic pancreas explants, intracellular staining was performed to detect Ngn3, CK19, and active Notch, and extracellular staining was used to detect the extracellular Notch domain, EpCAM, CD31 and CD45.\nWestern blotting. Pancreatic tissues were processed from E16.5 embryos as single samples and directly used for lysis. Embryonic pancreas explants from E12.5 embryos were cultured in vitro with anti-serpinB13 mAb (or control Ab) for 24 or 48 hours, then, three explant cultures were combined and lysed. The samples were washed two times in ice-cold PBS and lysed with gentle pipetting for 10 minutes with additional tap-vortexing for 15 minutes in RIPA buffer containing Halt protease inhibitors (cat. no. 1862209, Thermo Fisher Scientific). Equal amounts of protein in each sample were run under reducing conditions on Bis-Tris BOLT gradient gel (4-12%) or NUPAGE Tris-acetate gradient gels (4-12%) (both from Thermo Fisher Scientific), and transferred onto […] nitrocellulose or activated PVDF membranes. The membranes were blocked with 5% skim milk and stained with primary and secondary antibodies, as indicated. The Western blots were developed with SuperSignal West Pico Chemiluminescent Substrate or West Femto Maximum Sensitivity Substrate (cat. nos. […] and […], respectively; both from Thermo Scientific), and scanned using the ChemiDoc™ MP Imaging System (Bio-Rad, Hercules, […], USA).\nQuantitative real-time PCR. Total RNA from embryonic pancreases was extracted using the RNeasy UCP Micro kit (cat. no. 73934; Qiagen, Hilden, Germany) to measure expression of the Notch1 gene. One hundred to […] of the total RNA per group was reverse transcribed to cDNA using the iScript cDNA Synthesis Kit (cat. no. 1708891; Bio-Rad). Quantitative PCR assays were performed on an Applied Biosystems QuantStudio 3 real-time PCR system using cDNA and the Kapa Sybr Fast reagent (cat. no. 0795959100; Roche). Actin-R was used as a reference gene. The primer sequence for Notch1 was as follows: forward—5′[…]3′ and reverse—5′ […]3′."}}}
{"molecule": "B1", "values": [{"measurement": "loss of body weight", "setting": "[1]; 1-4 weeks after STZ", "value": "prevented"}, {"measurement": "serum creatinine as a measure of renal function", "setting": "[1]; 4 weeks after STZ", "value": "improved"}, {"measurement": "preserved residual β-cell mass", "setting": "[1]; listed as anti-serpinB13 mAb", "value": "over two-fold greater"}, {"measurement": "preserved residual β-cell mass", "setting": "[1]; listed as serpinB13 mAb", "value": "higher"}, {"measurement": "diabetes / severity of the disease", "setting": "[1]", "value": "helped to prevent severe diabetes"}, {"measurement": "diabetes / severity of the disease", "setting": "[1]; listed as anti-serpinB13 antibody", "value": "improved outcomes"}, {"measurement": "diabetes / severity of the disease", "setting": "[1]; listed as anti-serpinB13 mAb", "value": "either completely protected against diabetes (FIG. 24A-24B), or ameliorated the severity of the disease"}, {"measurement": "diabetes / severity of the disease", "setting": "[1]; listed as mAb", "value": "improved resistance"}, {"measurement": "diabetes / severity of the disease", "setting": "[1]; listed as serpinB13 mAb", "value": "reduced severity of disease"}, {"measurement": "blood glucose control", "setting": "[1]; ipGTT at 2 weeks, random glucose 1-4 weeks after STZ", "value": "improved"}, {"measurement": "recovery from diabetes", "setting": "pancreatic islets; coadministration with a suboptimal dose of anti-CD3 mAb", "value": "accelerated"}, {"measurement": "Reg gene expression", "setting": "pancreatic islets; injection", "value": "enhanced"}, {"measurement": "beta cell mass", "setting": "pancreatic islets; injection", "value": "increase"}, {"measurement": "beta cell proliferation", "setting": "pancreatic islets; injection", "value": "enhanced"}, {"measurement": "generation of pancreatic islets", "setting": "pancreatic islets; injection", "value": "~80 pancreatic islets per animal"}, {"measurement": "islet inflammation", "setting": "pancreatic islets; mice, mAb alone", "value": "decreased"}, {"measurement": "~60 kD degradation fragments of Notch1", "setting": "Notch1 receptor; E12.5 explants treated 48 hours", "value": "induction"}, {"measurement": "levels of active Notch intracellular domain (aNICD)", "setting": "Notch1 receptor", "value": "diminished"}, {"measurement": "levels of active Notch intracellular domain (aNICD)", "setting": "Notch1 receptor; listed as mAb", "value": "markedly reduced levels"}, {"measurement": "expression of the ectodomain of the Notch1 receptor", "setting": "Notch1 receptor; embryonic pancreatic tissue, in vivo and in vitro exposure, 24 and 48 hours", "value": "time-dependent reduced expression"}, {"measurement": "transcriptional level of Notch1", "setting": "Notch1 receptor; quantitative PCR", "value": "relatively intact"}]}
